Here are results for 22 sequences from the Immune Epitope Database (IEDB).

Targets include HLA-A*11:01; HLA-A*03:01; HLA-A*68:01; HLA-A*31:01; HLA-A*33:01; HLA-A*02:03.
Assay in all cases: IEDB peptide-MHC binding, purified MHC/competitive/radioactivity; filed as Kd, often an IC50 or EC50 that approximates it; ≥ and ≤ were set here for values at or beyond the usual limits of such assays
Another experiment concerns the target HLA-A*02:06. The settings on record: source organism: Dengue virus 3 Martinique/1243/1999.
The mark [1] stands for this setting: source organism: Vaccinia virus WR.
Setting [2] is: source organism: Mammarenavirus choriomeningitidis.
Where [3] appears, read: source organism: Lassa virus GA391.
Setting [4] is: source organism: SARS coronavirus Tor2.
Where [5] appears, read: source organism: Mammarenavirus machupoense.

The Kd is the equilibrium constant for the complex coming apart. NLDLFMSHVK: the Kd came out at 68.8 nM with HLA-A*11:01 (setting [1]); 19.4 nM in the experiment with HLA-A*03:01 (setting [1]); 852 nM with HLA-A*68:01 (setting [1]); 7760 nM with HLA-A*31:01 (setting [1]); 2880 nM in the experiment with HLA-A*33:01 (setting [1]).
Take SAFNKKHFDH: the Kd is 1250 nM with HLA-A*11:01 (setting [2]); not below 22300 nM with HLA-A*03:01 (setting [2]); not below 36600 nM with HLA-A*68:01 (setting [2]); 12500 nM with HLA-A*31:01 (setting [2]); not below 28700 nM with HLA-A*33:01 (setting [2]).
Turning to NYSRYWYLNH, the Kd in the experiment with HLA-A*11:01 (setting [3]) was not below 30800 nM; with HLA-A*03:01 (setting [3]) it was 16200 nM; with HLA-A*68:01 (setting [3]) it was not below 70100 nM; in the experiment with HLA-A*31:01 (setting [3]) it was 7960 nM; with HLA-A*33:01 (setting [3]), 1360 nM.
Regarding LIIGPMFSGK, the Kd in the experiment with HLA-A*11:01 (setting [1]) came to 1.81 nM; in the experiment with HLA-A*03:01 (setting [1]) it was 6.17 nM; in the experiment with HLA-A*68:01 (setting [1]), 9.92 nM; with HLA-A*31:01 (setting [1]), 1270 nM; with HLA-A*33:01 (setting [1]), 2560 nM.
On to SSESLVYGIR, for which the Kd in the experiment with HLA-A*11:01 (setting [1]) was 476 nM; in the experiment with HLA-A*03:01 (setting [1]), not below 34800 nM; with HLA-A*68:01 (setting [1]) it was 475 nM; with HLA-A*31:01 (setting [1]), 780 nM; with HLA-A*33:01 (setting [1]), 623 nM.
For ALYYVHSLLY, in that order: 9.2 nM, 0.39 nM, 2240 nM, 11200 nM and not below 24200 nM.
For QILMKTANNY, in that order: 879 nM, 106 nM, 5020 nM, 2380 nM and 8870 nM.
Regarding IMKDGRVLV, the Kd with HLA-A*02:03 (source organism: Dengue virus 2 16681-PDK53) was 19 nM.
In the case of VFHLYLQYIR, the Kd in the experiment with HLA-A*11:01 (setting [4]) amounted to 1150 nM; with HLA-A*03:01 (setting [4]), 713 nM; with HLA-A*68:01 (setting [4]), 868 nM; in the experiment with HLA-A*31:01 (setting [4]) it was 56.3 nM; with HLA-A*33:01 (setting [4]) it was 174 nM.
As to RFVKFNDYRK, the Kd came to 429 nM with HLA-A*11:01 (setting [1]); 516 nM with HLA-A*03:01 (setting [1]); 51.1 nM in the experiment with HLA-A*68:01 (setting [1]); 37.3 nM in the experiment with HLA-A*31:01 (setting [1]); 1830 nM with HLA-A*33:01 (setting [1]).
Turning to TSFGPLVRK, the Kd with HLA-A*11:01 (setting [4]) is 0.21 nM; in the experiment with HLA-A*03:01 (setting [4]) it was 4.39 nM; with HLA-A*68:01 (setting [4]) it was 7.04 nM; with HLA-A*31:01 (setting [4]) it was 452 nM; with HLA-A*33:01 (setting [4]) it was 5250 nM.
With DTNLITCNDH, the Kd is not below 69700 nM with HLA-A*11:01 (setting [5]); not below 70000 nM in the experiment with HLA-A*03:01 (setting [5]); not below 70100 nM with HLA-A*68:01 (setting [5]); not below 70000 nM with HLA-A*31:01 (setting [5]); not below 30800 nM with HLA-A*33:01 (setting [5]).
Take NISIISIRPR: the Kd with HLA-A*11:01 (setting [1]) amounted to 866 nM; in the experiment with HLA-A*03:01 (setting [1]), 2640 nM; with HLA-A*68:01 (setting [1]), 5.1 nM; with HLA-A*31:01 (setting [1]), 49.6 nM; in the experiment with HLA-A*33:01 (setting [1]), 285 nM.
For KLGDKGSPYY, in that order: 3570 nM, 2.48 nM, 5080 nM, not below 23100 nM and not below 39400 nM.
For SSDSENNPEY, in that order: 4460 nM, not below 70100 nM, not below 70200 nM, not below 70000 nM and not below 70000 nM.
As for QQQQGQTVTK, the dissociation constant Kd in the experiment with HLA-A*11:01 (setting [4]) was 492 nM; with HLA-A*03:01 (setting [4]), 10200 nM; in the experiment with HLA-A*68:01 (setting [4]) it was 11300 nM; with HLA-A*31:01 (setting [4]), not below 27800 nM; in the experiment with HLA-A*33:01 (setting [4]), not below 70000 nM.
Take KTQFNYFKK: the Kd with HLA-A*11:01 (setting [4]) was 2.26 nM; with HLA-A*03:01 (setting [4]) it was 115 nM; in the experiment with HLA-A*68:01 (setting [4]), 2830 nM; in the experiment with HLA-A*31:01 (setting [4]) it was 2.32 nM; with HLA-A*33:01 (setting [4]), not below 77300 nM.
On to NFFVFIHMVR, for which the Kd worked out at 718 nM with HLA-A*11:01 (setting [1]); 174 nM with HLA-A*03:01 (setting [1]); 0.996 nM with HLA-A*68:01 (setting [1]); 18.6 nM in the experiment with HLA-A*31:01 (setting [1]); 7.99 nM in the experiment with HLA-A*33:01 (setting [1]).
Turning to GIITLYLGAV, the Kd with HLA-A*02:03 (source organism: Dengue virus 3 Martinique/1243/1999) stood at 4.98 nM; with HLA-A*02:06 it was 5.01 nM.
For TSETMYLTMK, the Kd amounted to 111 nM with HLA-A*11:01 (setting [1]); 1920 nM with HLA-A*03:01 (setting [1]); 471 nM in the experiment with HLA-A*68:01 (setting [1]); 2000 nM with HLA-A*31:01 (setting [1]); 11000 nM with HLA-A*33:01 (setting [1]).
For SVTKSSSWK, in that order: 2.51 nM, 7.62 nM, 41.2 nM, 19600 nM and not below 77700 nM.
As for SFGGASCCLY, the Kd with HLA-A*11:01 (setting [4]) turned out to be 140 nM; with HLA-A*03:01 (setting [4]) it was 302 nM; with HLA-A*68:01 (setting [4]), 180 nM; with HLA-A*31:01 (setting [4]), 2500 nM; with HLA-A*33:01 (setting [4]), 3770 nM.
